# According to patent US20240132599A1 (GAMMADELTA THERAPEUTICS, published 2024):
# Read-outs that look alike come from different tables or passages of the source.
# How the values were obtained:
# [1] = target: T1, L1 (DV1-GV4), recombinant soluble human Vδ1/Vγ4 γδ TCR heterodimer (human); experiment: SPR
# T1 construct: Biotinylated in the DELFIA ranking assay; also called human TRDV1; human Vδ1 antigen
# [2] = target: T1, L1 (DV1-GV4), recombinant soluble human …; experiment: SPR; remark: listed apart in the source
# [3] = target: T1, L1 (DV1-GV4), recombinant soluble human …; experiment: SPR; remark: listed apart in the source
# [4] = target: Vδ1 TCR on cynomolgus γδ T cells (cynomolgus monkey); experiment: cell-based or functional assay
# [5] = target: T2, EGFR on A431 cells (human, UniProt P00533 25-1210); experiment: flow cytometry on A431 cells, 4 C, anti-human IgG-APC secondary, median fluorescence
# T2 construct: whole, on cells; also called EGFR-positive A431; EGFR+A431 target cells
# Experimental: (§1) Target cells were stained with varying concentrations of antibody, followed by a fluorescent anti-human IgG detection antibody. All incubation steps were performed at 4° C. and mAb binding was determined using flow cytometry to measure the median level of fluorescence. Logarithmic four parameter dose-response curves were fitted using GraphPad Prism 9.
# (§2) Target cells were detached from tissue culture flask, resuspended in PBS and seeded at a final density of 100,000 cells per well in v-bottom 96-well plates. Cells underwent centrifugation and the cell pellets were resuspended in FcR blocking reagent according to the manufacturer's instructions, and incubated for 20 minutes at 4C prior to a further wash. Antibodies were diluted to 500 nM in PBS and serially diluted 1:10 in PBS to 50 μM, and added to the cells, followed by a 20-minute incubation at 4C. To determine the quantity of mAb bound to the cell surface, the cells were then stained with a murine anti-human IgG secondary antibody, conjugated to APC (dilution: 1:100) in addition to a viability dye. Following 20-minute incubation at 4C, the cells were washed twice, and fluorescence measured using the MACSQuant.
# [6] = target: T3, human EGFR, recombinant protein (human, UniProt P00533 25-645); experiment: SPR (Reichert 4SPR): antibody captured on a Protein A chip, human EGFR flowed at 100 nM
# T3 construct: Bought protein; also called human EGFR antigen
# [7] = target: T4, cyno antigen DV1/GV77, recombinant cynomolgus Vδ1 γδ TCR heterodimer (cynomolgus monkey); experiment: SPR
# T4 construct: also called cyno TRDV1; Cyno DV1-77; not shown: Delta-chain CDR3/J and constant part, the GV77 gamma chain, and any tags
# [8] = target: T3, human EGFR, recombinant protein; experiment: method not stated for this control
# [9] = target: T5, EGFR on HT-29 cells (human, UniProt P00533); experiment: flow cytometry on HT-29 cells, 20 min at 4 C, anti-human IgG secondary
# T5 construct: full length, cell surface; also called EGFR+ colon cancer cell line HT-29; HT-29 tumour cell
# Experimental: After washing, cells were incubated for a further 20 minutes with anti-human IgG secondary antibodies (Jackson Immunoresearch) and live/dead stain (eFluor 780, Invitrogen) before washing and fixing using CellFix. The amount of antibody bound to each cell type was determined using flow cytometry (MACSQuant Analyser 10, Miltenyi Biotech).
# [10] = target: T6, Vδ1 TCR on human Vδ1-positive γδ T cells (human, UniProt A0A1B0GX56 22-115); experiment: flow cytometry on skin-derived Vδ1+ cells, 20 min at 4 C, anti-human Fc secondary
# T6 construct: also called Vδ1 γδ T-cells; cell surface Vδ1 TCR
# Experimental: Cells were washed and stained with an anti-human Fc secondary antibody (Jackson Immunoresearch) and a viability dye for dead cells (eFlour 780, Invitrogen) for 20 minutes at 4° C. The cells were washed in FACS buffer and resuspended in Cell Fix (BD sciences) before analysis on a MACSQuant Analyser 10 flow cytometer (Miltenyi).
# [11] = target: T6, Vδ1 TCR on human Vδ1-positive γδ T cells; experiment: flow cytometry on primary Vδ1 γδ T cells, 4 C, anti-human IgG-APC secondary, median fluorescence
# Experimental: as §1, §2
# [12] = target: T3, human EGFR, recombinant protein; experiment: SPR
# [13] = target: T3, human EGFR, recombinant protein
# T1 sequence (main, as listed by the source): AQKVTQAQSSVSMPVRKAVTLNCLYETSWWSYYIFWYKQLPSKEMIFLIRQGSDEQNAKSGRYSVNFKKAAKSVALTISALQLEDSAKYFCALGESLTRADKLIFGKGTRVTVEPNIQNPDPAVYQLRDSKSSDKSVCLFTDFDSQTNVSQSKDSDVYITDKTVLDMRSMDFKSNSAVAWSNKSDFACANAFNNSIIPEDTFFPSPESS
# T6 sequence (A0A1B0GX56 22-115 limits assumed, stated change not applied): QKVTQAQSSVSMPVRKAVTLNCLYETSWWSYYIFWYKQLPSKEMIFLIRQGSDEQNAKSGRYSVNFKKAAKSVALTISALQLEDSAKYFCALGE
# Vδ1 TCR on cynomolgus γδ T cells (cynomolgus monkey), sequence (chain, as listed by the source): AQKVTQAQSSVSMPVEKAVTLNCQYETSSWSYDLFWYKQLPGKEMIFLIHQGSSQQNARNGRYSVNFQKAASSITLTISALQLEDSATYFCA
# T4 sequence (delta, as listed by the source limits assumed): as the sequence (chain, as listed by the source) above
binder,measurement,setting,value
"ADT1-4-1 (antibody, IgG1, V domains shown, IgG1) VH: EVQLQQSGPGLVKPSQTLSLTCAISGDSVSSKSAAWNWIRQSPSRGLEWLGRTYYRSKWSTDYAASVKSRITINPDTSKNQLSLQLNSVTPEDTAVYYCARTWVGYADVWGQGTLVTVSS VL: DIQMTQSPPALSASVGDRVTITCRASQDINDWLAWYQHKPGKAPKLLIYDASSLESGVPLRFSGSGSGTEFTLTISSLQPDDFATYYCQQRYSTPIVTFGQGTRLEIK",Kd,[1],0.08 nM
same,Kd,[2],0.08 nM
"ADT1-4-2 (antibody, IgG1, V domains shown, IgG1) VH: EVQLQQSGPGLVKPSQTLSLTCAISGDSVSSKSAAWNWIRQSPSRGLEWLGRTYYRSKWSTDYAASVKSRITINPDTSKNQLSLQLNSVTPEDTAVYYCARTWVGYVDRWGQGTLVTVSS VL: DIQMTQSPPALSASVGDRVTITCRASQDINDWLAWYQHKPGKAPKLLIYDASSLESGVPLRFSGSGSGTEFTLTISSLQPDDFATYYCQQKYSAPQVTFGQGTRLEIK",Kd,[3],0.522 nM
same,"EC50 (read off the curve), TCR downregulation, donor AD8170",[4],4 to 5 nM
same,"EC50 (read off the curve), TCR downregulation, donor AM945BA",[4],~2 nM
same,binding result,[5],no binding (tested: 500 nM)
same,binding result,[6],no binding (tested: 100 nM)
"ADT1-4-8 (antibody, IgG1, V domains shown, IgG1) VH: EVQLQQSGPGLVKPSQTLSLTCAISGDSVSSKSAAWNWIRQSPSRGLEWLGRTYYRSKWSTDYAASVKSRITINPDTSKNQLSLQLNSVTPEDTAVYYCARSWVGYVDVWGQGTLVTVSS VL: DIQMTQSPPALSASVGDRVTITCRASQDINDWLAWYQHKPGKAPKLLIYDASSLESGVPLRFSGSGSGTEFTLTISSLQPDDFATYYCQQKYSAPQVTFGQGTRLEIK",Kd,[1],0.541 nM
same,Kd,[7],15.1 nM
"D1.3xFS1-67 control (bispecific antibody, V domains shown, Only one entry is named for the whole molecule; it may hold heavy and light chains together; also called D1.3 FS1-67) VH: QVQLQESGPGLVRPSQTLSLTCTVSGSTFSGYGVNWVRQPPGRGLEWIGMIWGDGNTDYNSALKSRVTMLVDTSKNQFSLRLSSVTAADTAVYYCARERDYRLDYWGQGSLVTVSS VL: DIQMTQSPSSLSASVGDRVTITCRASGNIHNYLAWYQQKPGKAPKLLIYYTTTLADGVPSRFSGSGSGTDYTFTISSLQPEDIATYYCQHFWSTPRTFGQGTKVEIKR",Kd,[8],1 nM
same,EC50,[9],0.281 nM
same,MFI (at saturation),[10],~0.495 MFI
same,EC50 (read off the curve),[5],~8 nM
same,binding result,[11],no binding (tested: 500 nM)
"ADT1-4-2/ADT3-5 (bispecific antibody, mAb2; also called ADT1-4-2xLEE1) heavy: EVQLQQSGPGLVKPSQTLSLTCAISGDSVSSKSAAWNWIRQSPSRGLEWLGRTYYRSKWSTDYAASVKSRITINPDTSKNQLSLQLNSVTPEDTAVYYCARTWVGYVDRWGQGTLVTVSSASTKGPSVFPLAPSSKSTSGGTAALGCLVKDYFPEPVTVSWNSGALTSGVHTFPAVLQSSGLYSLSSVVTVPSSSLGTQTYICNVNHKPSNTKVDKKVEPKSCDKTHTCPPCPAPELAGAPSVFLFPPKPKDTLMISRTPEVTCVVVDVSHEDPEVKFNWYVDGVEVHNAKTKPREEQYNSTYRVVSVLTVLHQDWLNGKEYKCKVSNKALPAPIEKTISKAKGQPREPQVYTLPPSRDELTKNQVSLTCLVKGFYPSDIAVEWESTYGPENNYKTTPPVLDSDGSFFLYSKLTVSYWRWYKGNVFSCSVMHEALHNHYTQKSLSLSPG light: DIQMTQSPPALSASVGDRVTITCRASQDINDWLAWYQHKPGKAPKLLIYDASSLESGVPLRFSGSGSGTEFTLTISSLQPDDFATYYCQQKYSAPQVTFGQGTRLEIKRTVAAPSVFIFPPSDEQLKSGTASVVCLLNNFYPREAKVQWKVDNALQSGNSQESVTEQDSKDSTYSLSSTLTLSKADYEKHKVYACEVTHQGLSSPVTKSFNRGEC",Kd,[3],0.883 nM
same,Kd,[12],142 nM
same,Kd,[13],140 nM
